Test results as given in patent US20180231567A1.

What was measured:
[1] = molecular target: serum IgE of the 10 allergic adults sensitized to peanut extract used for the inhibition experiments (Example 3) (human); experiment: ELISA cross-inhibition; Ara h 6 immobilized, sera pre-incubated with competing allergen at 0.1, 1 and 10 ug/ml
[2] = molecular target: serum IgE of the 10 allergic adults sensitized to peanut extract used for the inhibition experiments (Example 3) (human); experiment: ELISA cross-inhibition; Ara h 7.0201 immobilized, sera pre-incubated with competing allergen at 0.1, 1 and 10 ug/ml

B1: Ara h 2 isotype 2.0201, as expressed in example 1 (His fusion protein) (protein)
chain: MSHHHHHHIEGRTMRQQWELQGDRRCQSQLERANLRPCEQHLMQKIQRDEDSYGRDPYSPSQDPYSPSQDPDRRDPYSPSPYDRRGAGSSQHQERCCNELNEFENNQRCMCEALQQIMENQSDRLQGRQQEQQFKRELRNLPQQCGLRAPQRCDLEVESGGRDRY
% inhibition (median) [1]: 43%
% inhibition (median) [2]: 16%
